Read-outs that look alike come from different tables or passages of the source.
Legend:
[1] = kinetic analysis, non-endpoint assay at 23° C.; assay type: biochemical; details: for Vmax 2,4-D / Km / Vmax Quizalofop: Table 10 series, unit as defined
Source text: For the fifth screen, recombinant protein for each of the eleven engineered proteins was produced and purified for an in-depth biochemical analysis. This biochemical analysis included: (1) kinetic analysis (Vmax and Km), (2) activity assays over a range of temperatures, (3) protein melting analysis, (4) activity on additional AOPP herbicides substrates, and (5) mass spectrometry analysis on peptides to confirm identity. The biochemical analyses were also done with purified recombinant wild-type protein and MON-HT55 protein for comparison. For the kinetic analysis, a non-endpoint assay was conducted at 23° C. with either quizalofop-P or 2,4-D as substrate. The recombinant proteins for these assays were produced in bacteria and purified using a 6-His tag fused at the C-terminal end of the protein. Results of the kinetic analysis with either quizalofop-P or 2,4-D as substrate are presented for ten of the engineered proteins, wild-type protein, and MON-HT55 protein in Table 7 (standard error is shown in parenthetical). Vmax is expressed as specific activity, umol herbicide product mg enzyme-1 min-1; Km expressed as mM herbicide substrate. […] The differentiation of the protein kinetics for MON-HTI and MON-HT7 were surprising because there are only four amino acid differences between MON-HT1 and MON-HT7. Specifically, MON-HT1 has the following amino acids at the indicated position: 182; F105; T112; and V273, and MON-HT7 has the following amino acids at the indicated position: L82; V105; S112; and A273.
Kinetic analysis using a non-endpoint assay was conducted at 23° C. with either quizalofop-P or 2,4-D as substrate, as detailed above for purified protein of the wild-type enzyme, MON-HT1, MON-HT13, MON-HT15, and MON-HT17.

[2] = assay type: physicochemical; details: Table 11 series
Method: A protein melting analysis was also conducted. For the protein melting determinations, purified enzyme was added to 96-well microtiter plates in standard storage buffer (30 mM Tris pH7.5, 150 mM NaCl) with or without 50 uM Fe2+ and 1.0 mM aKG. Protein unfolding was then detected with SYPRO® orange protein gel stain (Invitrogen™ catalog #S6651, Life Technologies, Grand Island, NY) in a BioRad CFX96™ Real time PCR machine (BioRad, Hercules, CA) with readings taken between 10° C. to 95° C. in 0.5° C. steps. […] In contrast, 50 uM Fe2+ and 1.0 mM aKG had little effect on the stability of any of the engineered proteins. MON-HT55, MON-HT3, MON-HT4, MON-HT6, and MON-HT10 had melting temperatures in the range of 41° C. to 48° C., which is below the melting temperature of the wild-type enzyme. MON-HT1, MON-HT2, MON-HT5, MON-HT7, MON-HT8, and MON-HT9 had melting temperatures between 58° C. and 67° C., which is 8° C. to 17° C. higher than the wild-type enzyme. For MON-HT7 and MON-HT1, the difference in melting point was 11° C. in buffer without Fe2+ and aKG and 8° C. in buffer with Fe2+ and aKG. This was surprising since there are only four amino acid differences between the two enzymes.
A protein melting analysis was conducted as detailed above. The melting temperatures of MON-HT13, MON-HT15, and MON-HT17 was similar to the melting temperature of MON-HT1 with T1/2 in buffer in the range of 55-58° C., and with T1/2 in buffer plus Fe2+ and aKG in the range of 60-62° C.

[3] = enzyme activity assay at 23° C. with purified enzyme; assay type: biochemical; details: for activity with fluroxypyr as the substrate / activity with triclopyr as the substrate: not robust enough to quantify; for MCPA Km / MCPA Vmax / Mecoprop Km: percentage of wild-type RdpA, set at 100%
Method: The enzyme activity of MON-HT protein variants with triclopyr, fluroxypyr, MCPA, MCPB, mecoprop, as substrates was determined using the enzyme activity assay conducted at 23° C. with purified enzyme. The activity was recorded as the maximum activity as a percentage of the wild-type RdpA enzyme's activity, which was set at 100%. […] The enzymatic activity with mecoprop as a substrate was reduced for each of the MON-HT1, MON-HT13, MON-HT15, and MON-HT17 variants compared to the wild-type RdpA enzyme. An unexpected result was that enzymatic activity with MCPA as a substrate was roughly 6-fold greater for MON-HT1, and approximately 10-fold greater for MON-HT13, MON-HT15, and MON-HT17 compared to the wild-type RdpA enzyme.

[4] = tested on: transgenic soybean plants; experiment: R0 soybean 2,4-D spray test of 2,4-D optimized variants; assay type: in vivo; details: for tolerance to 2,4-D treatment: 2× application rate, soy
Source text: An additional five engineered proteins optimized for activity for 2,4-D were then selected for analysis in transgenic soybean. DNA constructs were produced for expressing MON-HT13 (SEQ ID NO:47), MON-HT14 (SEQ ID NO:48), MON-HT15 (SEQ ID NO:49), MON-HT17 (SEQ ID NO:51), and MON-HT18 (SEQ ID NO:52) with codon usage optimized for dicot expression. The operably linked expression elements (promoter, leader, intron, CTP, and 3′UTR) were identical in all of the constructs. Leaf samples were taken from R0 plantlets and single copy plants were identified using a PCR-based assay. When the single-copy R0 plants had approximately two to three trifoliate leaves, they were treated with either 1.5 lb ae/acre (2×) or 3.0 lb ae/acre (4×) of 2,4-D. Seven days after herbicide application, the plants were scored for herbicide injury based on the percent area of the plant showing injury, as indicated above.

[5] = 23° C., read-out: Km Quizalofop
[6] = 2,4-D rate 2X (1.5 lb ae/acre), single copy R0 soy, seven days after application

Molecule	enzymatic activity with quizalofop compared with MON-HT1 [1]	Vmax 2,4-D [1]	Km ([1]; read-out: Km 2,4-D)	Vmax Quizalofop ([1]; 23° C.)	Km [1, 5]	Melting temp, Buffer [2]	Melting temp, Buffer plus Fe2+ and aKG [2]	activity with MCPB as the substrate [3]	enzymatic activity with MCPA greater compared to the wild-type RdpA enzyme [3]	activity with fluroxypyr as the substrate [3]	activity with triclopyr as the substrate [3]	MCPA Km [3]	MCPA Vmax [3]	Mecoprop Km [3]	Events with 20-50% injury [4, 6]	Events with <20% injury [4, 6]	tolerance to 2,4-D treatment [4]
MON-HT13: engineered oxygenase protein, amino acid sequence SEQ ID NO:47 (protein) MHAALTPLTNKYRFIDVQPLTGVLGAEITGVDLREPLDDSTWNEILDAFHTYQVIYFPGQAITNEQHIAFSRRFGPVDPVPILKSIEGYPEVQMIRREANESSRYIGDDWHADSTFLDAPPAAVVMRAIEVPEYGGDTGFLSMYSAWETLSPTMQATIEGLNVVHSATKVFGSLYQATNWRFSGTSVKVMDVDAGDRETVHPLVVTHPVTGRRALYCNQVYCQKIQGMTDAESKSLLQFLYEHATQFDFTCRVRWKKDQVLVWDNLCTMHRAVPDYAGKFRYLTRTTVAGDKPSR	roughly similar to the activity of MON-HT1	3.38 (0.05) umol herbicide product mg enzyme-1 min-1	80 µM	1.51 (0.05) umol herbicide product mg enzyme-1 min-1	120 µM	57 °C	62 °C	no detectable activity	approximately 10 fold	detectable activity	detectable activity	68%	1800%	92%	1	12	excellent tolerance
MON-HT15: engineered oxygenase protein, amino acid sequence SEQ ID NO:49 (protein) MHAALTPLTNKYRHIDVQPLTGVLGAEITGVDLREPLDDSTWNEILDAFHTYQVIYFPGQAITNEQHIAFSRRFGPVDPVPILKSIEGYPEVQMIRREANESSRYIGDDWHADSTFLDAPPAAVVMRAIEVPEYGGDTGFLSMYSAWETLSPAMQATIEGLNVVHSATKVFGSLYQATNWRFSNTSVKVMDVDAGDRETVHPLVVTHPVTGRRALYCNQIYCQKIQGMTDAESKSLLQFLYEHATQFDFTCRVRWKKDQVLVWDNLCTMHRAVPDYAGKFRYLTRTTVAGDKPSR	roughly similar to the activity of MON-HT1	3.53 (0.04) umol herbicide product mg enzyme-1 min-1	70 µM	1.52 (0.06) umol herbicide product mg enzyme-1 min-1	120 µM	55 °C	60 °C	no detectable activity	approximately 10 fold	detectable activity	detectable activity	59%	1300%	57%	–	5	excellent tolerance

From patent US12723255B2, “Herbicide tolerance genes and methods of use thereof” (priority 2014, dated 2026)
